{"source": "patent US12667614B2", "about": "“Bacterial microcompartment virus-like particles” (National University of Singapore, priority 2020, dated 2026)", "key": {"[1]": {"substrate": "COc1ccccc1O", "assay": "Steady-state kinetics of free APEX2 (guaiacol oxidation)", "assay_type": "biochemical, pea", "settings": "other: free APEX2 10 nM, guaiacol 0.20 to 2.0 mM, H2O2 1 mM, TBS-50/350 pH 8.0, mean with standard error, triplicates, 30.0 °C", "protocol": "(§1) For APEX2, all reagents were made to the appropriate working concentrations using TBS-50/350 pH 8.0. Working solutions of guaiacol and H2O2, both at 10 mM, were prepared on the day of assay. The guaiacol solution was shaken vigorously at 30° C. to ensure complete dissolution before equilibration back to room temperature. The assay concentration for APEX2 was 10 nM, H2O2 1 mM and that for guaiacol ranged from 0.20 to 2.0 mM. Total reaction volume was 200 μL. Reactions were monitored by the absorbance of tetraguaiacol formed at 470 nm using a BioTek Synergy™ HT microplate reader. […] This time point was taken for initial rate, V0, measurement. Kinetic constants were obtained using non-linear least square Michaelis-Menten fitting in GraphPad Prism software.\nTo probe the capacity of the Cso-BMC for encasing enzymes of considerably different molecular sizes, an evolved pea cytosolic ascorbate peroxidase (APEX2), a 27.0 kDa monomer [Lam et al., Nature Methods 12(1): 51-54 (2015)], and E. coli beta-galactosidase (LacZ), a 466.0 kDa homotetramer, were chosen for encapsulation [Golan, et al., Biochimica et Biophysica Acta (BBA)—Bioenergetics, 1293(2): 238-242; Lam et al., Nature Methods 12(1): 51-54 (2015)]. […] Enzymes were also N-terminally tagged with the hexahistidine (Hiss) tag to facilitate downstream removal of unencapsulated enzymes that might co-purify with shells (Nichols, Kennedy, & Tullman-Ercek, 2019). Cso-PSIIH shells co-expressed with enzymes were constructed and purified. SDS-PAGE analysis and Western blotting confirmed the presence of the target enzymes in shell samples (FIG. 18A-B) and the average copy numbers of enzymes per shell were estimated by Coomassie blue densitometry (Table 8) [Hagen, A., et al., Nature Communications 9: 2881 (2018); Nichols et al., Methods in Enzymology, 617, 155-186 (2019)].\nEncapsulation of an enzyme into a protein shell is known to alter the enzyme's catalytic properties in some cases. […]"}, "[2]": {"substrate": "COc1ccccc1O", "assay": "Steady-state kinetics of Cso-BMC encapsulated APEX2 (guaiacol oxidation)", "assay_type": "biochemical, pea", "settings": "other: encapsulated APEX2 10 nM, guaiacol 0.20 to 2.0 mM, H2O2 1 mM, TBS-50/350 pH 8.0, mean with standard error, triplicates, 30.0 °C", "protocol": "as §1\nTo probe the capacity of the Cso-BMC for encasing enzymes of considerably different molecular sizes, an evolved pea cytosolic ascorbate peroxidase (APEX2), a 27.0 kDa monomer [Lam et al., Nature Methods 12(1): 51-54 (2015)], and E. coli beta-galactosidase (LacZ), a 466.0 kDa homotetramer, were chosen for encapsulation [Golan, et al., Biochimica et Biophysica Acta (BBA)—Bioenergetics, 1293(2): 238-242; Lam et al., Nature Methods 12(1): 51-54 (2015)]. […]"}}}
{"protein": "Free APEX2 (evolved pea cytosolic ascorbate peroxidase), N-terminal His6, fused to S2CP(30); APEX2-S2CP(30), SEQ ID NO: 110 (Glycine max; A134P/E112K/K14D/W41F) (protein) MGSSHHHHHHSSGMGKSYPTVSADYQDAVEKAKKKLRGFIAEKRCAPLMLRLAFHSAGTFDKGTKTGGPFGTIKHPAELAHSANNGLDIAVRLLEPLKAEFPILSYADFYQLAGVVAVEVTGGPKVPFHPGREDKPEPPPEGRLPDPTKGSDHLRDVFGKAMGLTDQDIVALSGGHTIGAAHKERSGFEGPWTSNPLIFDNSYFTELLSGEKEGLLQLPSDKALLSDPVFRPLVDKYAADEDAFFADYAEAHQKLSELGFADAGSSKPEKPGSKITGSSGNDTQGSLITYSGGARG", "values": [{"measurement": "Km", "setting": "[1]", "result": "580 ± 70", "unit": "µM"}, {"measurement": "kcat", "setting": "[1]", "result": "460 ± 20", "unit": "s⁻¹"}, {"measurement": "kcat/Km", "setting": "[1]", "result": "7.93 ± 1.02 × 10^5 (s^−1 · M^−1)"}]}
{"protein": "APEX2 + shell: APEX2 (evolved pea cytosolic ascorbate peroxidase), N-terminal His6, fused to S2CP(30), SEQ ID NO: 110, encapsulated in Cso-BMC (Cso-PSIIH) … (protein) MGSSHHHHHHSSGMGKSYPTVSADYQDAVEKAKKKLRGFIAEKRCAPLMLRLAFHSAGTFDKGTKTGGPFGTIKHPAELAHSANNGLDIAVRLLEPLKAEFPILSYADFYQLAGVVAVEVTGGPKVPFHPGREDKPEPPPEGRLPDPTKGSDHLRDVFGKAMGLTDQDIVALSGGHTIGAAHKERSGFEGPWTSNPLIFDNSYFTELLSGEKEGLLQLPSDKALLSDPVFRPLVDKYAADEDAFFADYAEAHQKLSELGFADAGSSKPEKPGSKITGSSGNDTQGSLITYSGGARG", "values": [{"measurement": "Km", "setting": "[2]", "result": "790 ± 120", "unit": "µM"}]}
